Results: patent US20180216094A1 (University of California, published 2018)

Molecular target: T1, FXIS557A catalytic domain (catalytically inactive catalytic domain of human FXI, Ile370 to Ala606 of SEQ ID … (human))
T1 construct: The range 20-264 is worked out from 19 signal residues + 237 domain residues + 8 His; also called FXIS557A catalytic domain decoy; decoy
Assay: SPR (Biacore T200), biotinylated FXIS557A catalytic domain captured on CAP chip, DEF Fab injected, 37 C, 1:1 Langmuir fit
Protocol: Binding affinity was measured using a Biacore T200 Instrument (GE Healthcare). Recombinant FXIS557A catalytic domain was biotin labeled via primary amines and captured on a Biacore CAP chip (GE Healthcare). Experiments were performed at 37° C. using a 30 μ/min flow rate in 10 mM HEPES (pH 7.4), 150 mM NaCI and 0.005% v/v Surfactant P20 (HBSp) buffer (GE Healthcare). After each DEF Fab injection, the chip surface was regenerated with a solution of 6 M guanidine-HCl and 0.25 M NaOH, coated with the CAP reagent and new FXIS557A was captured. All data was analyzed using the Biacore T200 Evaluation software and background and buffer subtracted data fit to a 1:1 Langmuir binding model. Results were reported as the mean of two experiments.

koff: 0.000445 s⁻¹ | kon: 2.95e+06 M⁻¹ s⁻¹
B1: DEF Fab (Fab, V domains shown)
VH: EVQLVQSGAEVKKPGASVKVSCKASGYTFTGYYMHWVRQAPGQGLEWMGWIDPDEGDTNYAQKFQGRVTMTRDTSISTAYMELSRLRSDDTAVYYCARLASGFRDYWGQGTLVTVSS
VL: DIVMTKSPSSLSASVGDRVTITCRASQGIRNDLGWYQQKPGKAPKRLIYAASSLQSGVPSRFSGSGSGTEFTLTISSLQPEDFATYYCLQHDIYASTFGPGTKVDIKR
notes: Fab form of antibody DEF
